Results published in the supplement of paper PMC7877785.
± gives the uncertainty stated by the source.

Experiment: self-splicing fitness, log relative to wild type (ln ratio); higher = more splicing; Tetrahymena group I intron in knt gene, E. coli kanamycin selection, DiMSum; sequences stand for … in CUCUCU…GGAGGGAAAAGUUAUCAGGCAUGCACCUGGUAGCUAGUCUUUAAACCAAUAGAUUGCAUCGGUUUAAAAGGCAAGACCGUCAAAUUGCGGGAAAGGGGUCAACAGCCGUUCAGUACCAAGUCUCAGGGGAAACUUUGAGAUGGCCUUGCAAAGGGUAUGGUAAUAAGCUGACGGACAUGGUCCUAACCACGCAGCCAAGUCCUAAGUCAACAGAUCUUCUGUUGAUAUGGAUGCAGUUCACAGACUAAAUGUCGGUCGGGGAAGAUGUAUUCUUCUCAUAAGAUAUAGUCGGACCUCUCCUUAAUGGGAGCUAGCGGAUGAAGUGAUGCAACACUGGAGCCGCUGGGAACUAAUUUGUAUGCGAAAGUAUAUUGAUUAGUUUUGGAGUACUCGUGGUCG
Method in brief: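 Colonies from six replicate transformations of E. coli BL21(DE3) were pooled and amplicon-sequenced on an Illumina HiSeq 2500. The library placed an intron with all eight P1ex-region nucleotides randomised inside the knt kanamycin-resistance gene on pET-22b(+), and cells grew overnight at 37°C or 30°C on LB agar with or without 25 μg/mL kanamycin (plus 100 μg/mL carbenicillin, 50 μM IPTG, 0.2% rhamnose). Fitness is the DiMSum error-weighted combination of wild-type-normalised replicate fold changes, kanamycin versus none.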

| Sequence | self-splicing fitness (ln) (30 °C) | self-splicing fitness (ln) (37 °C) |
| --- | --- | --- |
| GACAAGCAAUAUUACGAAUG | -2.42 ± 0.1 | -0.875 ± 0.098 |
| GACAAGCAAUAUUACGAGCC | -1.08 ± 0.18 | -0.366 ± 0.15 |
| GACAAGCAAUAUUACGAGCG | -1 ± 0.074 | -0.88 ± 0.088 |
| GACAAGCAAUAUUACGAUUG | -1.77 ± 0.078 | -1.54 ± 0.14 |
| GACAAGCAAUAUUACGCCCA | -0.451 ± 0.086 | -0.609 ± 0.13 |
| GACAAGCAAUAUUACGCCCU | -0.581 ± 0.14 | 0.33 ± 0.15 |
| GACAAGCAAUAUUACGCCGC | -3.31 ± 0.4 | -2.97 ± 0.43 |
| GACAAGCAAUAUUACGCUGG | -2.84 ± 0.14 | -1.97 ± 0.17 |
| GACAAGCAAUAUUACGGAAC | -1.94 ± 0.1 | -1.69 ± 0.17 |
| GACAAGCAAUAUUACGGAGG | -4.57 ± 0.31 | -2.08 ± 0.19 |
| GACAAGCAAUAUUACGGCCA | -0.973 ± 0.11 | -0.192 ± 0.15 |
| GACAAGCAAUAUUACGGGCC | -1.81 ± 0.18 | -1.96 ± 0.17 |
| GACAAGCAAUAUUACGGUGG | -2.01 ± 0.066 | -1.88 ± 0.092 |
| GACAAGCAAUAUUACGUAAA | -1.75 ± 0.069 | -1.09 ± 0.091 |
| GACAAGCAAUAUUACGUAAG | -2.11 ± 0.12 | -1.36 ± 0.14 |
| GACAAGCAAUAUUACGUACG | -1.82 ± 0.077 | -0.508 ± 0.091 |
| GACAAGCAAUAUUACGUAUC | -3.31 ± 0.15 | -0.876 ± 0.14 |
| GACAAGCAAUAUUACGUUAU | -3.17 ± 0.11 | -1.5 ± 0.095 |
| GACCAGCAAUAUUACGAAUU | -0.37 ± 0.073 | -0.374 ± 0.1 |
| GACCAGCAAUAUUACGACCU | 0.00245 ± 0.074 | -0.389 ± 0.073 |
| GACCAGCAAUAUUACGACGA | -0.236 ± 0.091 | 0.15 ± 0.1 |
| GACCAGCAAUAUUACGAUCG | -0.875 ± 0.091 | -0.444 ± 0.1 |
| GACCAGCAAUAUUACGAUUC | -0.023 ± 0.075 | -0.543 ± 0.08 |
| GACCAGCAAUAUUACGAUUG | -2.1 ± 0.073 | -1.08 ± 0.084 |

| Sequence | self-splicing fitness (ln) (30 °C) | self-splicing fitness (ln) (37 °C) |
| --- | --- | --- |
| GACCAGCAAUAUUACGCCAG | -3.98 ± 0.28 | -0.652 ± 0.19 |
| GACCAGCAAUAUUACGCCCG | -1.72 ± 0.12 | -0.754 ± 0.13 |
| GACCAGCAAUAUUACGCGGA | -1.06 ± 0.1 | -0.442 ± 0.1 |
| GACCAGCAAUAUUACGCUUC | -2.01 ± 0.1 | -1.66 ± 0.14 |
| GACCAGCAAUAUUACGGACC | -2.21 ± 0.17 | -2.38 ± 0.33 |
| GACCAGCAAUAUUACGGAUA | -0.244 ± 0.058 | 0.0596 ± 0.075 |
| GACCAGCAAUAUUACGGCUU | -0.0255 ± 0.055 | -0.293 ± 0.07 |
| GACCAGCAAUAUUACGGGAA | -0.695 ± 0.06 | -0.941 ± 0.067 |
| GACCAGCAAUAUUACGGUAC | -2.05 ± 0.09 | -1.75 ± 0.092 |
| GACCAGCAAUAUUACGGUGU | -0.661 ± 0.055 | -0.365 ± 0.084 |
| GACCAGCAAUAUUACGUCAU | -1.66 ± 0.058 | -0.747 ± 0.062 |
| GACCAGCAAUAUUACGUCCC | -0.756 ± 0.12 | -0.522 ± 0.13 |
| GACCAGCAAUAUUACGUCUG | -2.93 ± 0.23 | -1.74 ± 0.21 |
| GACCAGCAAUAUUACGUGAG | -1.33 ± 0.055 | -1 ± 0.064 |
| GACCAGCAAUAUUACGUGGC | -4.25 ± 0.21 | -2.88 ± 0.16 |
| GACCAGCAAUAUUACGUUAC | -1.65 ± 0.052 | -0.38 ± 0.067 |
| GACCAGCAAUAUUACGUUUA | -0.372 ± 0.051 | -0.0736 ± 0.062 |
| GACCAGCAAUAUUACGUUUC | -0.69 ± 0.065 | -0.568 ± 0.083 |
| GACGAGCAAUAUUACGAAAG | -3.59 ± 0.43 | -1.53 ± 0.37 |
| GACGAGCAAUAUUACGAACU | -1.83 ± 0.11 | -0.278 ± 0.11 |
| GACGAGCAAUAUUACGACUC | -1.36 ± 0.15 | 0.797 ± 0.18 |
| GACGAGCAAUAUUACGACUG | -2.47 ± 0.21 | -0.443 ± 0.25 |
| GACGAGCAAUAUUACGCAAC | -2.11 ± 0.29 | -2.31 ± 0.42 |
